Data from patent publication US20240199750A1.

How the values were obtained:
[1] = target: IL-2Rβ (CD122) on NK cells (human) (UniProt P14784); test: cell-based or functional assay
[2] = target: high affinity IL-2Rαβγ complex on Treg cells (human) (UniProt P01589); test: cell-based or functional assay
Sequence of UniProt P01589 (P01589 22-272, chain 1 of 3): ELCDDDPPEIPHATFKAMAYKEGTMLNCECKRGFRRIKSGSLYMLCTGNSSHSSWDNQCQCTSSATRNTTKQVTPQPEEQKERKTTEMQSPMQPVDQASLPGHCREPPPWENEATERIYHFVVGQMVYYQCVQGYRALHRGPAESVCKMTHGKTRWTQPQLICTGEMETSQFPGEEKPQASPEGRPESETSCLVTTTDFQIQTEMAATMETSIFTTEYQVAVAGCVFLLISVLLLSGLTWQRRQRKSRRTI
Sequence of UniProt P01589 (P14784 27-551, chain 2 of 3, further chain): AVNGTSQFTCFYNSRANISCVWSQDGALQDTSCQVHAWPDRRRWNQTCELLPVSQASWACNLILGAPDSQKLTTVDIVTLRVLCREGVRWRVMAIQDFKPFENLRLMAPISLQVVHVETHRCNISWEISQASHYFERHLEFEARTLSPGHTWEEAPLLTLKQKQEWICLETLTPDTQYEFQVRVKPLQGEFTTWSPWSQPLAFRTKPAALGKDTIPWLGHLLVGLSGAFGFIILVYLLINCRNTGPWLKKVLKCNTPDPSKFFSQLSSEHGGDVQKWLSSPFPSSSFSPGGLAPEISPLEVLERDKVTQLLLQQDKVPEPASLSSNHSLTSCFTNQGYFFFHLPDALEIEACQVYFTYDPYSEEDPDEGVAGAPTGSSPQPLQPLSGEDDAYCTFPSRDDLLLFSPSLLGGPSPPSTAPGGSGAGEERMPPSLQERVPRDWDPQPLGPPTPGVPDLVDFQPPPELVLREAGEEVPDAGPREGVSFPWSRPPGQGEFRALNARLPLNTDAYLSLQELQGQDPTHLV
Sequence of UniProt P01589 (P31785 23-369, chain 3 of 3, further chain): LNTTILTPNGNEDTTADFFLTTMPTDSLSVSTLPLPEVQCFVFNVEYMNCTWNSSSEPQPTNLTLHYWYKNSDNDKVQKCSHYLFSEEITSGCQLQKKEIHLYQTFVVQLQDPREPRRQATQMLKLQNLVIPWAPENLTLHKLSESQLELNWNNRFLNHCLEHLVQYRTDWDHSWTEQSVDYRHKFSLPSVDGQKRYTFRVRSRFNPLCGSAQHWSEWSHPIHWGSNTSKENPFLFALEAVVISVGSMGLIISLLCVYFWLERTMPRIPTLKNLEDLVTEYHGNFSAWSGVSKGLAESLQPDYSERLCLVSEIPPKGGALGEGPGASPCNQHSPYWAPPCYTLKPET

Sequence of UniProt P14784 (P14784 27-551): as the sequence (P14784 27-551, chain 2 of 3, further chain) above

B1: CD20-T5-NKp46-IL2v3 (protein, part only; not given: anti-CD20 antibody chains, anti-NKp46 domain, part only)
chain, part: SSSTKKTQLQLEHLLLDLQMILNGINNYKNPKLTAMLAKKFYMPKKATELKHLQCLEEELKPLEEVLNLAQSKNFHLRPRDLISNINVIVLELKGSETTFMCEYADETATIVEFLNRWITFCQSIISTLT
Work on B1 yielded a % pSTAT5, EC50 NK cells [1] of 10 pM and a % pSTAT5, EC50 Tregs [2] of 0.7 nM.
